Test results: PMC11574045, “A cofactor-induced repressive type of transcription factor condensation can be induced by synthetic peptides to suppress tumorigenesis” (The EMBO Journal, 2024)

B1: RHOXF2 (protein, UniProt Q9BQY4 1-288, looked up)
Rhox homeobox family member 2: MEPPDQCSQYMTSLLSPAVDDEKELQDMNAMVLSLTEEVKEEEEDAQPEPEQGTAAGEKLKSAGAQGGEEKDGGGEEKDGGGAGVPGHLWEGDLEGTSGSDGNVEDSDQSEKEPGQQYSRPQGAVGGLEPGNAQQPNVHAFTPLQLQELERIFQREQFPSEFLRRRLARSMNVTELAVQIWFENRRAKWRRHQRALMARNMLPFMAVGQPVMVTAAEAITAPLFISGMRDDYFWDHSHSSSLCFPMPPFPPPSLPLPLMLLPPMPPAGQAEFGPFPFVIVPSFTFPNV
B2: RNF6 (protein, UniProt Q9Y252 1-685, looked up)
E3 ubiquitin-protein ligase …: MNQSRSRSDGGSEETLPQDHNHHENERRWQQERLHREEAYYQFINELNDEDYRLMRDHNLLGTPGEITSEELQQRLDGVKEQLASQPDLRDGTNYRDSEVPRESSHEDSLLEWLNTFRRTGNATRSGQNGNQTWRAVSRTNPNNGEFRFSLEIHVNHENRGFEIHGEDYTDIPLSDSNRDHTANRQQRSTSPVARRTRSQTSVNFNGSSSNIPRTRLASRGQNPAEGSFSTLGRLRNGIGGAAGIPRANASRTNFSSHTNQSGGSELRQREGQRFGAAHVWENGARSNVTVRNTNQRLEPIRLRSTSNSRSRSPIQRQSGTVYHNSQRESRPVQQTTRRSVRRRGRTRVFLEQDRERERRGTAYTPFSNSRLVSRITVEEGEESSRSSTAVRRHPTITLDLQVRRIRPGENRDRDSIANRTRSRVGLAENTVTIESNSGGFRRTISRLERSGIRTYVSTITVPLRRISENELVEPSSVALRSILRQIMTGFGELSSLMEADSESELQRNGQHLPDMHSELSNLGTDNNRSQHREGSSQDRQAQGDSTEMHGENETTQPHTRNSDSRGGRQLRNPNNLVETGTLPILRLAHFFLLNESDDDDRIRGLTKEQIDNLSTRHYEHNSIDSELGKICSVCISDYVTGNKLRQLPCMHEFHIHCIDRWLSENCTCPICRQPVLGSNIANNG
B3: RFXDC1 (protein, UniProt Q8HWS3 1-928, looked up)
DNA-binding protein RFX6: MAKVPELEDTFLQAQPAPQLSPGIQEDCCVQLLGKGLLVYPEETVYLAAEGQPGGEQGGGEKGEDPELPGAVKSEMHLNNGNFSSEEEDADNHDSKTKAADQYLSQKKTITQIVKDKKKQTQLTLQWLEENYIVCEGVCLPRCILYAHYLDFCRKEKLEPACAATFGKTIRQKFPLLTTRRLGTRGHSKYHYYGIGIKESSAYYHSVYSGKGLTRFSGSKLKNEGGFTRKYSLSSKTGTLLPEFPSAQHLVYQGCISKDKVDTLIMMYKTHCQCILDNAINGNFEEIQHFLLHFWQGMPDHLLPLLENPVIIDIFCVCDSILYKVLTDVLIPATMQEMPESLLADIRNFAKNWEQWVVSSLENLPEALTDKKIPIVRRFVSSLKRQTSFLHLAQIARPALFDQHVVNSMVSDIERVDLNSIGSQALLTISGSTDTESGIYTEHDSITVFQELKDLLKKNATVEAFIEWLDTVVEQRVIKTSKQNGRSLKKRAQDFLLKWSFFGARVMHNLTLNNASSFGSFHLIRMLLDEYILLAMETQFNNDKEQELQNLLDKYMKNSDASKAAFTASPSSCFLANRNKGSMVSSDAVKNESHVETTYLPLPSSQPGGLGPALHQFPAGNTDNMPLTGQMELSQIAGHLMTPPISPAMASRGSVINQGPMAGRPPSVGPVLSAPSHCSTYPEPIYPTLPQANHDFYSTSSNYQTVFRAQPHSTSGLYPHHTEHGRCMAWTEQQLSRDFFSGSCAGSPYNSRPPSSYGPSLQAQDSHNMQFLNTGSFNFLSNTGAASCQGATLPPNSPNGYYGSNINYPESHRLGSMVNQHVSVISSIRSLPPYSDIHDPLNILDDSGRKQTSSFYTDTSSPVACRTPVLASSLQTPIPSSSSQCMYGTSNQYPAQETLDSHGTSSREMVSSLPPINTVFMGTAAGGT
B4: BATF3 (protein, UniProt Q9NR55 1-127, looked up)
Basic leucine zipper …: MSQGLPAAGSVLQRSVAAPGNQPQPQPQQQSPEDDDRKVRRREKNRVAAQRSRKKQTQKADKLHEEYESLEQENTMLRREIGKLTEELKHLTEALKEHEKMCPLLLCPMNFVPVPPRPDPVAGCLPR
B5: RNF2 (protein, UniProt Q99496 2-336, looked up)
E3 ubiquitin-protein ligase …: SQAVQTNGTQPLSKTWELSLYELQRTPQEAITDGLEIVVSPRSLHSELMCPICLDMLKNTMTTKECLHRFCADCIITALRSGNKECPTCRKKLVSKRSLRPDPNFDALISKIYPSRDEYEAHQERVLARINKHNNQQALSHSIEEGLKIQAMNRLQRGKKQQIENGSGAEDNGDSSHCSNASTHSNQEAGPSNKRTKTSDDSGLELDNNNAAMAIDPVMDGASEIELVFRPHPTLMEKDDSAQTRYIKTSGNATVDHLSKYLAVRLALEELRSKGESNQMNLDTASEKQYTIYIATASGQFTVLNGSFSLELVSEKYWKVNKPMELYYAPTKEHK
B6: R-LIM (protein, UniProt Q9NVW2 1-624, looked up)
E3 ubiquitin-protein ligase …: MENSDSNDKGSGDQSAAQRRSQMDRLDREEAFYQFVNNLSEEDYRLMRDNNLLGTPGESTEEELLRRLQQIKEGPPPQNSDENRGGDSSDDVSNGDSIIDWLNSVRQTGNTTRSGQRGNQSWRAVSRTNPNSGDFRFSLEINVNRNNGSQNSENENEPSARRSSGENVENNSQRQVENPRSESTSARPSRSERNSTEALTEVPPTRGQRRARSRSPDHRRTRARAERSRSPLHPMSEIPRRSHHSISSQTFEHPLVNETEGSSRTRHHVTLRQQISGPELLSRGLFAASGTRNASQGAGSSDTAASGESTGSGQRPPTIVLDLQVRRVRPGEYRQRDSIASRTRSRSQTPNNTVTYESERGGFRRTFSRSERAGVRTYVSTIRIPIRRILNTGLSETTSVAIQTMLRQIMTGFGELSYFMYSDSDSEPTGSVSNRNMERAESRSGRGGSGGGSSSGSSSSSSSSSSSSSSSSSSSSPSSSSGGESSETSSDLFEGSNEGSSSSGSSGARREGRHRAPVTFDESGSLPFLSLAQFFLLNEDDDDQPRGLTKEQIDNLAMRSFGENDALKTCSVCITEYTEGNKLRKLPCSHEYHVHCIDRWLSENSTCPICRRAVLASGNRESVV
B7: RFX4 (protein, UniProt Q33E94 1-735, looked up)
Transcription factor RFX4: MHCGLLEEPDMDSTESWIERCLNESENKRYSSHTSLGNVSNDENEEKENNRASKPHSTPATLQWLEENYEIAEGVCIPRSALYMHYLDFCEKNDTQPVNAASFGKIIRQQFPQLTTRRLGTRGQSKYHYYGIAVKESSQYYDVMYSKKGAAWVSETGKKEVSKQTVAYSPRSKLGTLLPEFPNVKDLNLPASLPEEKVSTFIMMYRTHCQRILDTVIRANFDEVQSFLLHFWQGMPPHMLPVLGSSTVVNIVGVCDSILYKAISGVLMPTVLQALPDSLTQVIRKFAKQLDEWLKVALHDLPENLRNIKFELSRRFSQILRRQTSLNHLCQASRTVIHSADITFQMLEDWRNVDLNSITKQTLYTMEDSRDEHRKLITQLYQEFDHLLEEQSPIESYIEWLDTMVDRCVVKVAAKRQGSLKKVAQQFLLMWSCFGTRVIRDMTLHSAPSFGSFHLIHLMFDDYVLYLLESLHCQERANELMRAMKGEGSTAEVREEIILTEAAAPTPSPVPSFSPAKSATSVEVPPPSSPVSNPSPEYTGLSTTGAMQSYTWSLTYTVTTAAGSPAENSQQLPCMRNTHVPSSSVTHRIPVYPHREEHGYTGSYNYGSYGNQHPHPMQSQYPALPHDTAISGPLHYAPYHRSSAQYPFNSPTSRMEPCLMSSTPRLHPTPVTPRWPEVPSANTCYTSPSVHSARYGNSSDMYTPLTTRRNSEYEHMQHFPGFAYINGEASTGWAK
B8: RHOXF1 (protein, UniProt Q8NHV9 1-184, looked up)
Rhox homeobox family member 1: MARSLVHDTVFYCLSVYQVKISPTPQLGAASSAEGHVGQGAPGLMGNMNPEGGVNHENGMNRDGGMIPEGGGGNQEPRQQPQPPPEEPAQAAMEGPQPENMQPRTRRTKFTLLQVEELESVFRHTQYPDVPTRRELAENLGVTEDKVRVWFKNKRARCRRHQRELMLANELRADPDDCVYIVVD
B9: RNF14 (protein, UniProt Q9UBS8 1-474, looked up)
E3 ubiquitin-protein ligase …: MSSEDREAQEDELLALASIYDGDEFRKAESVQGGETRIYLDLPQNFKIFVSGNSNECLQNSGFEYTICFLPPLVLNFELPPDYPSSSPPSFTLSGKWLSPTQLSALCKHLDNLWEEHRGSVVLFAWMQFLKEETLAYLNIVSPFELKIGSQKKVQRRTAQASPNTELDFGGAAGSDVDQEEIVDERAVQDVESLSNLIQEILDFDQAQQIKCFNSKLFLCSICFCEKLGSECMYFLECRHVYCKACLKDYFEIQIRDGQVQCLNCPEPKCPSVATPGQVKELVEAELFARYDRLLLQSSLDLMADVVYCPRPCCQLPVMQEPGCTMGICSSCNFAFCTLCRLTYHGVSPCKVTAEKLMDLRNEYLQADEANKRLLDQRYGKRVIQKALEEMESKEWLEKNSKSCPCCGTPIEKLDGCNKMTCTGCMQYFCWICMGSLSRANPYKHFNDPGSPCFNRLFYAVDVDDDIWEDEVED
B10: ROG (protein, UniProt Q9Y2Y4 1-487, looked up)
Zinc finger and BTB …: MSLPPIRLPSPYGSDRLVQLAARLRPALCDTLITVGSQEFPAHSLVLAGVSQQLGRRGQWALGEGISPSTFAQLLNFVYGESVELQPGELRPLQEAARALGVQSLEEACWRARGDRAKKPDPGLKKHQEEPEKPSRNPERELGDPGEKQKPEQVSRTGGREQEMLHKHSPPRGRPEMAGATQEAQQEQTRSKEKRLQAPVGQRGADGKHGVLTWLRENPGGSEESLRKLPGPLPPAGSLQTSVTPRPSWAEAPWLVGGQPALWSILLMPPRYGIPFYHSTPTTGAWQEVWREQRIPLSLNAPKGLWSQNQLASSSPTPGSLPQGPAQLSPGEMEESDQGHTGALATCAGHEDKAGCPPRPHPPPAPPARSRPYACSVCGKRFSLKHQMETHYRVHTGEKPFSCSLCPQRSRDFSAMTKHLRTHGAAPYRCSLCGAGCPSLASMQAHMRGHSPSQLPPGWTIRSTFLYSSSRPSRPSTSPCCPSSSTT

System: HEK293FT cells transfected with TF library
Assay: Screening of TF condensates based on fluorescent puncta
Format: cell-based
Conditions: Figure 1B numerical data; TF library screen, one value per transcriptional factor
Summary of the method: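 HEK293FT, PEI transfection of TF library, 60 h; ±glucose 12 h; 4% PFA fix, 0.05% Triton X-100 permeabilization, 5% BSA block; anti-Flag/anti-GAL4 overnight at 4 °C, Alexa 488 secondary 1 h; high-content imaging, 50 fields/well.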

| Molecule | Z score of condensed fraction |
| --- | --- |
| B1 | 1.459 |
| B2 | -1.108 |
| B3 | 3.216 |
| B4 | -0.4698 |
| B5 | -0.7099 |
| B6 | -0.6236 |
| B7 | -0.3239 |
| B8 | -0.9364 |
| B9 | 0.4543 |
| B10 | -0.6823 |
